Experimental data published in patent US20240417458A1.

Target: FcRn
Test: SPR (BIAcore) at pH 6.0

Row | Kd | Substance
1 | 1640 nM | Non-specific IgG1 (antibody)
2 | 3640 nM | Non-specific IgG4 (antibody)
